From PMC10632791

Tests used:
[1] = system: DegU (Bacillus velezensis DMW1); test: MST; details: MST: 50 mM Tris pH 7.5, 150 mM NaCl, 10 mM MgCl2, 0.05% Tween 20, 25 C
[2] = target: T1, DegU (Bacillus velezensis DMW1) (UniProt A3KLC2); test: EMSA; details: MST: 50 mM Tris pH 7.5, 150 mM NaCl, 10 mM MgCl2, 0.05% Tween 20, 25 C
T1 sequence: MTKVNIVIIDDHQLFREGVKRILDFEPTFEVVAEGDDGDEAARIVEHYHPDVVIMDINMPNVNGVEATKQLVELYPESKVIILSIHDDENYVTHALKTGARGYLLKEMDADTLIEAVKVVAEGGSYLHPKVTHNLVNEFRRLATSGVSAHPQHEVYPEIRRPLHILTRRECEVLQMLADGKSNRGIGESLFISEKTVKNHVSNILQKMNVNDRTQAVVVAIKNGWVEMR

Substance	Kd [1]	binding [2]
pbae	110 nM	
AGTGCTCTATGTAAAATAGAGTGCTTTTTTTGCGGTTTAATGAAATCATATTGCGAACATTCGGACCGTCTGTTTCGGTTCTTGCGCTGTTTTTTCCGGGTCAGCTTACGTACGTAAATTTTTTTCATTCTGCCATAACTGGATATTTGACAGATTTTCATTATAGTTTAAAGATTTTTAATTTTACGTAAATAATATTTTTGAAAATAAATTGCGGGATGCCGCAAAATACCCTCTGGATTCGTCGGATTTTTTTTCGGTGTGCCGCATGAAACTTTTCACCCATTTTTCG (double strand) [P01 (srfA promoter -328 to -36)]		no binding
psrfA	670 nM	
pitu	30 nM	
pdfn	140 nM	
ATGTGTGCGCCTCCCCTTTTTAAGATAAAGTTGTCAATTCTCCCTTAGAAACAGCCTCCCTCTATGTCCCTAACTCATTCTCAAGCCAAAAGAACCACTTACCTCCAAAAACGATCCCGATTCAATCACCGCCGAAATCCGTCATCCGTTCACCCGCGCAGTCCGAAATGCGGCATCAAATTTATGAGAAATCAAGACAAAAAGCCATTGATTGTAAGCACGAAAGGTTTACCTATTTCTGCATGTATTTCTATATATCTACTTACGTTCACTTTATATGAAAATATTGTTTTTATCAC (double strand) [P02 (srfA promoter -35 to +263)]		binds
pfen	1170 nM	
pmln	130 nM	
